US20110262445A1 (CEPHALON AUSTRALIA, published 2011)
Positions count from the first letter of the chain named. In names and notes the source's numbering stands. Like-named read-outs stand apart in the source and are kept apart here.

B1: Antibody 69 (antibody, human IgG1, kappa, V domains shown)
VH: EVQLVQSGAEVKKPGATVKISCKASGYTFSDYYLHWVRQAPGKGLEWMGWIDPENGDTEYAPKFQGKVTITADTSTDTGYLELSSLRSEDTAVYYCAANKELRYFDVWGQGTLVTVSS
VL: DIQMTQSPSSVSASVGDRVTITCRASQSISINLHWYQQKPGKAPKLLIYFASQSISGVPSRFSGSGSGTDFSLTINSLQPEDFARYYCQQSNSFPLTFGGGTKVEIKR
B2: Antibody 71 (antibody, human IgG1, kappa, V domains shown)
VH: B1 VH with K67R
VL: B1 VL with Y49K, S65Y
B3: Antibody 179 (antibody, human IgG1, kappa)
heavy: not shown
light: DIQMTQSPSSVSASVGDRVTITCRASQSISINLHWYQQKPGKAPKLLIYFASQSISGVPSRFSGSGSGTDFSLTINSLQTEDFATYYCQQSNSFPLTFGGGTKVEIKRTVAAPSVFIFPPSDEQLKSGTASVVCLLNNFYPREAKVQWKVDNALQSGNSQESVTEQDSKDSTYSLSSTLTLSKADYEKHKVYACEVTHQGLSSPVTKSFNRGEC
B4: Antibody 70 (antibody, human IgG1, kappa, V domains shown)
VH: B1 VH with A40R, G42E
VL: B1 VL
B5: Antibody 175 (antibody, human IgG1, kappa, V domains shown)
VH: B1 VH with T28A, G42E, K67R
VL: B1 VL with P80T, R85T
B6: Antibody 75 (antibody, human IgG1, kappa, V domains shown)
VH: B1 VH with A40R, G42E
VL: B1 VL with Y49K, S65Y
B7: Antibody 73 (antibody, human IgG1, kappa, V domains shown)
VH: B1 VH with G42E, K67R
VL: B1 VL with Y49K, S65Y
B8: Antibody 74 (antibody, human IgG1, kappa, V domains shown)
VH: B1 VH
VL: B1 VL with Y49K, S65Y
B9: Antibody 72 (antibody, human IgG1, kappa, V domains shown)
VH: B1 VH with A40R, K67R
VL: B1 VL with Y49K, S65Y
B10: Antibody 6 (antibody, human IgG1, kappa, V domains shown)
VH: EVQLQQSGADLVRSGASIKLSCTASGFNIKDYYMHWVKQRPEQGLEWIGWIDPENGDTEYAPKFQGKATMTADTSSNTAYLQLSSLTSEDTAVYYCNARKELRYFDVWGAGTTVTVSS
VL: DIVLTQSPATLSVTPGDSVSLSCRASQSISINLHWYQQKSHESPRLLIKFASQSISGIPSRFSGYGSGTDFTLSINSVETEDFGRYFCQQSNSWPLTFGAGTKLELKR
B11: scFv combo. # 3 (scFv)
scFv: QVQLVQSGAEVKKPGASVKVSCKASGYAFTDYYLHWVRQAPGQGLEWMGWIDPENGDTEYAPKFQGRVTMTTDTSTSTAYMELRSLRSDDTAVYYCNANKELRYFDVWGQGTMVTVSSGGGGSGGGGSGGGGSEIVMTQSPATLSVSPGERATLSCRAPQSISINLHWYQQKPGQAPRLLIYFASQSISGIPARFSGSGSGTEFTLTISSLQSEDFAVYYCQQSNSFPLTFGGGTKVEIKR
notes: scFv-80 with VH T28A; VL S26P; not shown: proprietary C-terminal FLAG tag
B12: scFv combo. # 4 (scFv)
scFv: B11 scFv with A28T, F29L
notes: scFv-80 with VH F29L; VL S26P; not shown: proprietary C-terminal FLAG tag
B13: scFv combo. # 16 (scFv)
scFv: B11 scFv with A28T, F29L, P159S, S185R
notes: scFv-80 with VH F29L; VL S52R; not shown: proprietary C-terminal FLAG tag
B14: scFv combo. # 5 (scFv)
scFv: B11 scFv with P159S, S196F
notes: scFv-80 with VH T28A; VL S63F; not shown: proprietary C-terminal FLAG tag
B15: scFv combo. # 15 (scFv)
scFv: B11 scFv with A28T, F29L, P159S, S196F
notes: scFv-80 with VH F29L; VL S63F; not shown: proprietary C-terminal FLAG tag
B16: Antibody 199 (antibody, human IgG1, kappa, V domains shown)
VH: QVQLVQSGAEVKKPGASVKVSCKASGYTFTDYYLHWVRQAPGQGLEWMGWIDPENGDTEYAPKFQGRVTMTTDTSTSTAYMELRSLRSDDTAVYYCAANKELRYFDVWGQGTMVTVSS
VL: EIVMTQSPATLSVSPGERATLSCRASQSISINLHWYQQKPGQAPRLLIYFASQSISGIPARFSGSGSGTEFTLTISSLQSEDFAVYYCQQSNSFPLTFGGGTKVEIKR
B17: Antibody 202 (antibody, human IgG1, kappa, V domains shown)
VH: B16 VH with F29L, Y60S
VL: B16 VL
notes: not the murine PMA202
B18: Antibody 206 (antibody, human IgG1, kappa, V domains shown)
VH: B16 VH with T28A
VL: B16 VL
B19: Antibody 203 (antibody, human IgG1, kappa, V domains shown)
VH: B16 VH with Y60H
VL: B16 VL
B20: Antibody 200 (antibody, human IgG1, kappa, V domains shown)
VH: B16 VH with F29L
VL: B16 VL
B21: Antibody 201 (antibody, human IgG1, kappa, V domains shown)
VH: B16 VH with Y60S
VL: B16 VL
B22: Antibody 204 (antibody, human IgG1, kappa, V domains shown)
VH: B16 VH with K12E, R67G
VL: B16 VL
notes: not the murine PMA204

What was measured:
[1] = target: T1, human IL-12 (human, UniProt P29460 23-328; P29459 23-219); assay: ELISA, coated IL-12
T1 construct: Recombinant (Peprotech); FLAG-tagged IL-12 in the flow cytometry assays, biotinylated in the IL-12Rβ2 assay; also called hIL-12
T1 sequence 1: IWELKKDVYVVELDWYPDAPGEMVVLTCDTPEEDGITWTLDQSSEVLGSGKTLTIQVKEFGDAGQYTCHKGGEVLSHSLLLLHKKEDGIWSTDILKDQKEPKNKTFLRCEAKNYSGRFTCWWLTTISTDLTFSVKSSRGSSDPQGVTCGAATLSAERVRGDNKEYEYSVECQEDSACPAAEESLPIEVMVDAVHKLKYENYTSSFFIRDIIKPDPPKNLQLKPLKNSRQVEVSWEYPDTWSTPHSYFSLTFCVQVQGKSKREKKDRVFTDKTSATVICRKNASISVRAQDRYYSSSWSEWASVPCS
T1 sequence 2: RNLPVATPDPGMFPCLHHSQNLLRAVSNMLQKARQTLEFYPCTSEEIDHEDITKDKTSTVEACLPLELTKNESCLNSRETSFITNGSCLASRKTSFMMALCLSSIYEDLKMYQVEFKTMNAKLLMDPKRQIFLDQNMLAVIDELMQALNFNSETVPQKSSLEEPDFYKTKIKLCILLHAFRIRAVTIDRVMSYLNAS
Method in brief: (§1)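 Maxisorp plates were coated overnight at 4° C with cytokine at 1 μg/mL in carbonate buffer pH 9.6, then blocked for 1 hour at 25° C with 1% BSA in PBS. Antibody titrations were allowed to bind for 1 hour at 25° C and detected with goat anti-human IgG or anti-murine immunoglobulin HRP (1:2000, 1 hour), followed by TMB development stopped with 1M HCl. Binding is reported as absorbance. Readings were taken at 450 nm against a 620 nm reference.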

[2] = target: T2, human IL-23 (human, UniProt P29460 23-328; Q9NPF7 20-189); assay: ELISA, coated IL-23
T2 construct: Recombinant (Ebioscience); HIS-tagged in flow cytometry, biotinylated in some assays; also called hIL-23; rhIL-23
T2 sequence 1: T1 sequence 1
T2 sequence 2: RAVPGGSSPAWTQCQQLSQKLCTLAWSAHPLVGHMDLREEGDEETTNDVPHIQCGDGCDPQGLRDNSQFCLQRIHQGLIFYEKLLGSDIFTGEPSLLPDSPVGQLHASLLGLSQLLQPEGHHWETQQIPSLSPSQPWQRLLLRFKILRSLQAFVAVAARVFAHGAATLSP
Method in brief: as §1

[3] = target: T1, human IL-12; assay: ELISA, coated IL-12; remark: listed apart in the source
Description: (§2) IL-12 (Peprotech), IL-23 (Ebioscience™), IL-12p40 (Ebioscience™) or IL-12p80 (Peprotech), was diluted to 1 μg/mL in carbonate coating buffer ([…] pH 9.6) and coated onto a 96 well plate (Nunc™, Maxisorp™) overnight at 4° C. The plate was then washed three times with wash buffer (0.01M PBS pH 7.2, 0.05% Tween-20) and then three times with 0.01M PBS pH 7.2. The wells were then blocked by adding 200 μl of blocking buffer (1% w/v BSA in 0.01 M PBS pH 7.2) to each well and incubating the plate at 25° C. for 1 hour. The antibody was diluted in antibody diluent (1% w/v BSA, 0.05% Tween-20 in 0.01M PBS pH 7.2) sufficient to generate a titration curve. The wells were incubated with the antibody for 1 hour at 25° C. The plate was then washed as previously described. Goat anti-human immunoglobulin G (H+L) antibody HRP conjugate (Zymed®) at 1:2000 in antibody diluent was used to detect bound primary antibody. Goat anti-murine immunoglobulin antibody HRP conjugate (Dako) at 1:2000 in antibody diluent was used to detect bound murine antibody. After incubation at 25° C. for 1 hour the plate was washed again as previously described. TMB substrate solution (Zymed®) was added to each well and the colour allowed to develop; the reaction was terminated by adding 1M HCl to the wells. The absorbance of each well was determined at 450 nm (ref. 620 nm).

[4] = target: T2, human IL-23; assay: ELISA, coated IL-23; remark: listed apart in the source
Description: as §2

[5] = target: T1, human IL-12; assay: ELISA, coated IL-12; remark: listed apart in the source
Method in brief: as §1

[6] = target: T1, human IL-12; assay: SPR, single 81 nM analyte, scFv via FLAG

| Binder | binding result [1] | binding result [2] | binding result [3] | binding result [4] | also measured |
| --- | --- | --- | --- | --- | --- |
| B1 | binds | binds | – | – | – |
| B2 | binds | binds | – | – | – |
| B3 | – | – | binds | binds | – |
| B4 | binds | binds | – | – | – |
| B5 | – | – | binds | binds | – |
| B6 | binds | binds | – | – | – |
| B7 | binds | binds | – | – | – |
| B8 | binds | binds | – | – | – |
| B9 | binds | binds | – | – | – |
| B10 | – | – | – | – | binding result [5]: no binding (tested: not given) |
| B11 | – | – | – | – | Kd [6]: 0.029 nM; koff [6]: 4.5e-05 s⁻¹; kon [6]: 1.6e+06 M⁻¹ s⁻¹ |
| B12 | – | – | – | – | Kd [6]: 0.027 nM; koff [6]: 4.8e-05 s⁻¹; kon [6]: 1.8e+06 M⁻¹ s⁻¹ |
| B13 | – | – | – | – | Kd [6]: 0.05 nM; koff [6]: 7.5e-05 s⁻¹; kon [6]: 1.5e+06 M⁻¹ s⁻¹ |
| B14 | – | – | – | – | Kd [6]: 0.038 nM; koff [6]: 6.5e-05 s⁻¹; kon [6]: 1.7e+06 M⁻¹ s⁻¹ |
| B15 | – | – | – | – | Kd [6]: 0.039 nM; koff [6]: 6.4e-05 s⁻¹; kon [6]: 1.7e+06 M⁻¹ s⁻¹ |
| B16 | – | – | binds | binds | – |
| B17 | – | – | binds | binds | – |
| B18 | – | – | binds | – | – |
| B19 | – | – | binds | binds | – |
| B20 | – | – | binds | binds | – |
| B21 | – | – | binds | binds | – |
| B22 | – | – | binds | binds | – |
